From patent publication US20110165175A1 (AFFIMED THERAPEUTICS, published 2011)
Values joined by “and” are separate entries in the source; they are usually repeats but may differ in a detail not shown here. Identical values can stand only once.

Legend:
[1] = target: platelet integrin receptor GPIIb/IIIa (alpha IIb/beta 3), activated state, on ADP-activated human platelets (human) (UniProt P08514); assay: flow cytometry, inhibition of fibrinogen binding to ADP-activated platelets in whole blood
[2] = target: T1, platelet integrin receptor GPIIb/IIIa (alpha IIb/beta 3), activated state, on ADP-activated human platelets (human, UniProt P08514 32-1039; P05106 27-788); assay: FACS, inhibition of fibrinogen binding to activated human platelets
T1 construct: whole, on cells; The assays were on whole platelets

[3] = target: platelet integrin receptor GPIIb/IIIa (alpha IIb/beta 3), activated state, on ADP-activated human platelets (human) (UniProt P08514); assay: flow cytometry, ratio against non-activated platelets at the same scFv concentration (FIG. 23 B)
[4] = target: platelet integrin receptor GPIIb/IIIa (alpha IIb/beta 3), activated state, on ADP-activated human platelets (human) (UniProt P08514); assay: flow cytometry, inhibition of fibrinogen binding to ADP-activated platelets in whole blood, 4-parameter logistic fit
[5] = target: platelet integrin receptor GPIIb/IIIa (alpha IIb/beta 3), activated state, on ADP-activated human platelets (human) (UniProt P08514); assay: flow cytometry, ADP-activated platelets in diluted human whole blood, scFv at 0.1 µg/mL, background of secondary reagent subtracted
[6] = target: platelet integrin receptor GPIIb/IIIa (alpha IIb/beta 3), non-activated state, on non-activated human platelets (human) (UniProt P08514); assay: flow cytometry, non-activated platelets in diluted human whole blood, scFv at 0.1 µg/mL, background of secondary reagent subtracted
[7] = target: platelet integrin receptor GPIIb/IIIa (alpha IIb/beta 3), activated state, on ADP-activated human platelets (human) (UniProt P08514); assay: flow cytometry, ADP-activated platelets in diluted human whole blood, scFv at 3.9×10^-2 µg/mL, background of secondary reagent subtracted
[8] = target: platelet integrin receptor GPIIb/IIIa (alpha IIb/beta 3), activated state, on ADP-activated human platelets (human) (UniProt P08514); assay: flow cytometry, ADP-activated platelets in diluted human whole blood, scFv at 4.9×10^-3 µg/mL, background of secondary reagent subtracted
[9] = target: platelet integrin receptor GPIIb/IIIa (alpha IIb/beta 3), activated state, on ADP-activated human platelets (human) (UniProt P08514); assay: flow cytometry, ADP-activated platelets in diluted human whole blood, scFv at 9.8×10^-3 µg/mL, background of secondary reagent subtracted
[10] = target: platelet integrin receptor GPIIb/IIIa (alpha IIb/beta 3), non-activated state, on non-activated human platelets (human) (UniProt P08514); assay: flow cytometry, non-activated platelets in diluted human whole blood, scFv at 3.9×10^-2 µg/mL, background of secondary reagent subtracted
[11] = target: platelet integrin receptor GPIIb/IIIa (alpha IIb/beta 3), non-activated state, on non-activated human platelets (human) (UniProt P08514); assay: flow cytometry, non-activated platelets in diluted human whole blood, scFv at 4.9×10^-3 µg/mL, background of secondary reagent subtracted
[12] = target: platelet integrin receptor GPIIb/IIIa (alpha IIb/beta 3), non-activated state, on non-activated human platelets (human) (UniProt P08514); assay: flow cytometry, non-activated platelets in diluted human whole blood, scFv at 9.8×10^-3 µg/mL, background of secondary reagent subtracted
[13] = target: platelet integrin receptor GPIIb/IIIa (alpha IIb/beta 3), activated state, on ADP-activated human platelets (human) (UniProt P08514); assay: flow cytometry, ADP-activated platelets in diluted human whole blood, scFv at 2.0×10^-3 µg/mL as printed, background of secondary reagent subtracted
[14] = target: platelet integrin receptor GPIIb/IIIa (alpha IIb/beta 3), non-activated state, on non-activated human platelets (human) (UniProt P08514); assay: flow cytometry, non-activated platelets in diluted human whole blood, scFv at 2.0×10^-3 µg/mL as printed, background of secondary reagent subtracted

B1: ReoPro (abciximab, Centocor/Eli Lily) (Fab, INN chains, looked up, V domains shown)
VH: EVQLQQSGTVLARPGASVKMSCEASGYTFTNYWMHWVKQRPGQGLEWIGAIYPGNSDTSYIQKFKGKAKLTAVTSTTSVYMELSSLTNEDSAVYYCTLYDGYYVFAYWGQGTLVTVSA
VL: EIVLTQSPVTLSVTPGDSVSLSCRASRDISNNLHWFQQTSHESPRLLIKYASQSMSGIPSRFSGSGSGTDFTLSINSVETEDFGMYFCQQTNSWPYTFGGGTKLEIK
modifications: Fab
EC50 [1]: 0.16 µg/mL

B2: MB9 scFv (scFv)
scFv: MAEVQLVQSGAEVNKPGASVKVSCKASGYTFTGYYMHWVRQAPGQGLEWMGWINPNSGGTNYAQKFQGWVTMTRDTSISTAYMELSRLRSDDTAVYYCARGRALYNRNDRSPNWFDPWGQGTLVTVSSGSASAPTLKLEEGEFSEARVQAVLTQPPSVSVAPGQTARITCGGNNIGSKSVQWYQQKPGQAPVLVVYDDSDRPSGIPERFSGSNSGNMATLTISRVEAGDEADYYCQVWDSSSDHVVFGGGTKLTVLGQPKAAPSVTLFPPSAAAGSHHHHHH
notes: Human scFv from the natural IgM phage library, 31 kDa, detected through a His tag; also called clone MB9; MA2
IC50 [2]: 1.1 µg/mL and 35 nM

B3: human anti-gpIIb/IIIa single chain antibody (scFv) SCE5 (scFv, V domains shown, not shown: small tags and cut ends)
VH: QVQLQESGGGLVQPGGSLRLSCAASGFMFSRYAMSWVRQAPGKGPEWVSGISGSGGSTYYADSVKGRFTVSRDNSKNTLYLQMNSLRAEDTAVYYCARGATYTSRSDVPDQTSFDYWGQGTLVTVSS
VL: SSELTQDPAVSVALGQTVRITCQGDSLRNFYASWYQQKPGQAPTLVIYGLSKRPSGIPDRFSASSSGNTASLTITGAQAEDEADYYCLLYYGGGQQGVFGGGTKLTVL
modifications: linker and His tag
concentration at which the inhibitory effect starts [1]: 0.1 to 0.2 µg/mL
concentration of maximal inhibitory effect [1]: 10 µg/mL
fluorescence on activated platelets divided by fluorescence on non-activated platelets [3]: 10 times
EC50 [4]: 0.94 µg/mL
fluorescence signal value [5]: 4.15
fluorescence signal value [6]: 0.16
fluorescence signal value [7]: 2.84
fluorescence signal value [8]: 0.265
fluorescence signal value [9]: 0.612
fluorescence signal value [10]: 0.05
fluorescence signal value [11]: 0.013
fluorescence signal value [12]: 0.015
fluorescence signal value [13]: 1.33
fluorescence signal value [14]: 0.027
